# Assay results: article PMC9882985 (Science Advances, 2023)
# What was measured:
# [1] = biological target: eYFP-CP2c WT with SUMO2 conjugation; assay: FRET; settings: in vitro, n = 3, parent: est. 13, read off a plot
# [2] = biological target: eYFP-CP2c WT with SUMO3 conjugation; assay: FRET; settings: in vitro; eYFP-CP2c conjugated with SUMO3 (lane 12); n = 3; parent: est. 13; read off a plot
# [3] = biological target: eYFP-CP2c WT with SUMO conjugation (SUMO1), Q9ERA0;P63165; assay: FRET; settings: in vitro; eYFP-CP2c conjugated with SUMO1 (lane 6); n = 3; parent: est. 75; read off a plot
# [4] = biological target: PSME3 WT-dTomato with SUMO1 conjugation, P61289;P63165; assay: FRET; settings: in vitro; PSME3-dTomato conjugated with SUMO1 (lane 6); n = 3; parent: est. 55; read off a plot
# [5] = biological target: PSME3 WT-dTomato with SUMO2 conjugation, P61289;P61956; assay: FRET; settings: in vitro; PSME3-dTomato conjugated with SUMO2 (lane 7); n = 3; parent: est. 21; read off a plot
# [6] = biological target: PSME3 WT-dTomato with SUMO3 conjugation, P61289;P55854; assay: FRET; settings: in vitro; PSME3-dTomato conjugated with SUMO3 (lane 8); n = 3; parent: est. 24; read off a plot
# [7] = biological target: the molecule itself; assay: cross-linking + co-IP; DSP XL-IP: live transfected cells crosslinked with 2 mM DSP in PBS 3 hours on ice, lysed, immunoprecipitated, Western blot with or without DTT; cells arrested at G2-M with MG132 (Fig. 4G)
# PSME3 WT-dTomato (non-SUMOylated), sequence (P61289 whole entry, change not shown): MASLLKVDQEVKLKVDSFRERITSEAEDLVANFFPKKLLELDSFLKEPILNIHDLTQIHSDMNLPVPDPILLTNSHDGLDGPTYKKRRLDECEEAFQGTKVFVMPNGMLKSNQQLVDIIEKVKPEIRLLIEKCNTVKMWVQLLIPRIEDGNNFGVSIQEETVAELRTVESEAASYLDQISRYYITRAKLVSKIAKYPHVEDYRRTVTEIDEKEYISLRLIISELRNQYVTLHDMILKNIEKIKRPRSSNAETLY
molecule,measurement,setting,value
PSME3 WT-dTomato (non-SUMOylated) (from UniProt P61289) K6R; K12R; K14R; K110R; K123R; K243R,response,[1]; eYFP-CP2c conjugated with SUMO2 (lane 11),9%
same,response,[2],7%
PSME3 WT-dTomato (non-SUMOylated) (from UniProt P61289) SIM m70 (ILLTN→IRRTN) + SIM m115 (LVDII→RKDII),response,[3],11%
same,response,[1]; eYFP-CP2c conjugated with SUMO2 (lane 7),16%
eYFP-CP2c WT (non-SUMOylated) (from UniProt Q9ERA0) SIM m158: VGVID→KGKID,response,[4],7%
same,response,[5],9%
same,response,[6],12%
"Flag-tagged CP2c WT (natural protein, mouse, UniProt Q9ERA0 1-502, looked up, CP2c (Tfcp2), mouse cDNA, in pcDNA3-Flag; In cells part of it is SUMO1-conjugated at K50; also called Flag-CP2c; source: 293T, transfected, in lysate) MAWALKLPLADEVIESGLVQDFDASLSGIGQELGAGAYSMSDVLALPIFKQEESSLPPDNENEILPFQYVLCAATSPAVKLHDETLTYLNQGQSYEIRMLDNRKLGELPELNGKLVKSIFRVVFHDRRLQYTEHQQLEGWRWNRPGDRILDIDIPMSVGVIDPRANPTQLNTVEFLWDPSKRTSVFIQVHCISTEFTMRKHGGEKGVPFRVQIDTFKENGNGEYTEHLHSASCQIKVFKPKGADRKQKIDREKMEKRTPHEKEKYQPSYETTILTECSPWPEITYVNNSPSPGFNSSHSSFSLGEGNGSPNHQPEPPPPVTDNLLPTTTPQEAQQWLHRNRFSTFTRLFTNFSGADLLKLTRDDVIQICGPADGIRLFNALKGRMVRPRLTIYVCQESLQLREQQPQPQPQPQKQEDGDSNGTFFVYHAIYLEELTAVELTEKIAQLFSISPHQISQIYKQGPTGIHVVISDEMVQNFQEEACFILDTMEAETSDSYHVILK",stoichiometry N,[7],2
